# From PMC13544220, “Glycemic and bodyweight effects of GIPR coding variation reflect differences in surface expression and intrinsic functional impairment” (Science Advances, 2026)
# B1: R131S (protein, UniProt P48546 22-466, looked up, variant R131S)
# Gastric inhibitory …: RAETGSKGQTAGELYQRWERYRRECQETLAAAEPPSGLACNGSFDMYVCWDYAAPNATARASCPWYLPWHHHVAAGFVLRQCGSDGQWGLWRDHTQCENPEKNEAFLDQSLILERLQVMYTVGYSLSLATLLLALLILSLFRRLHCTRNYIHINLFTSFMLRAAAILSRDRLLPRPGPYLGDQALALWNQALAACRTAQIVTQYCVGANYTWLLVEGVYLHSLLVLVGGSEEGHFRYYLLLGWGAPALFVIPWVIVRYLYENTQCWERNEVKAIWWIIRTPILMTILINFLIFIRILGILLSKLRTRQMRCRDYRLRLARSTLTLVPLLGVHEVVFAPVTEEQARGALRFAKLGFEIFLSSFQGFLVSVLYCFINKEVQSEIRRGWHHCRLRRSLGEEQRQLPERAFRALPSGSGPGEVPTSRGLSSGTLPGPGNEASRELESYC
# Legend:
# Assay type in all cases: cell-based, human
# [1] = system: wild-type and variant SNAP-GIPR; experiment: Surface SNAP-GIPR expression (SNAP-tag labelling) in AD293 cells; conditions: for AD293 Surface: Fig S3E, mean; for Surface SNAP-GIPR expression: sheet Fig 1C;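 on all read-outs here: scaled to the experimental average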
# Description: (§1) Twenty-four hours before the experiment, AD293 or INS-1 cells were reverse transfected with GIPR variant or wild-type plasmids using Lipofectamine 2000 in 96-well, clear-bottom, black microplates precoated with poly-D-lysine. All variants were tested in parallel on each occasion to control for transfection efficiency differences between experiments. Cells were then labeled using the cell-impermeant probe SNAP-Surface Alexa Fluor 647 (500 nM, New England Biolabs, USA) for 10 min at room temperature to label only surface GIPR. […] Several fields of view (FOVs) were acquired within each well using a 20X, 0.75–numerical aperture (NA) air objective. Surface GIPR fluorescence was quantified after flat-field correction using BaSiC ([72]) and segmenting using Phantast ([73]), which generates a mask based on the phase contrast images to demarcate cell versus noncell. Wide-field imaging of the surface-specific labeling achieved by SNAP-Surface probes means that surface expression can be established from whole-cell fluorescence, after subtracting nonspecific fluorescence from a separate well containing nontransfected cells processed in parallel from the same experiment. Data were normalized by dividing by the average specific signal across each experiment, or by the wild-type value, as indicated in the figure legends.
# [2] = system: wild-type and variant SNAP-GIPR; experiment: Single-concentration GIP cAMP response by HTRF in INS-1 cells; conditions: Fig S3E, mean
# Description: (§2) All variants were tested in parallel on each occasion to control for transfection efficiency differences between experiments.
# [3] = system: wild-type and variant SNAP-GIPR; experiment: cADDis cAMP imaging in AD293 cells, ensemble, expression-matched and per decile; conditions: Fig S3F, cADDis, mean
# Description: AD293 cells were reverse transfected with the GIPR variant or wild-type plasmids using Lipofectamine 2000 and cotransduced with the cADDis Green Up BacMam (10 μl per well, Montana Molecular, USA), in 96-well, poly-D-lysine–coated microplates. All variants were tested in parallel on each occasion to control for transfection efficiency differences between experiments. After 24 hours, cells were labeled using 500 nM SNAP-Surface Alexa Fluor 647 for 10 min at room temperature. Cells were washed three times and then imaged in KRBH buffer containing 6 mM glucose and 0.1% BSA. Imaging was performed at 37°C by wide-field microscopy using the same microscope as in the “Assessment of surface GIPR expression by SNAP-tag labeling in cell lines” section, with 9 FOVs for both cADDis and SNAP-Surface fluorescence acquired from each well using a 10X, 0.45 NA air objective. […] Flat-field correction was performed using BaSiC ([72]), drift correction was performed using SIFT, and a maximum intensity projection of the cADDis channel was used to segment individual cells. cAMP responses were determined by quantifying the cADDis fluorescence intensity for each cell at each time point. Nonviable cells or noncell objects were excluded according to criteria for allowable cell IBMX/FSK responses. […] The cADDis mask was then used to quantify the SNAP-Surface signal from each cell. Wild-type SNAP-Surface readings were split into deciles, and these deciles were subsequently used to categorize variant-transfected cells to match against the wild type. After trimming the top and bottom deciles, the mean was taken of each decile mean for surface expression level or cAMP response, which achieved matched expression levels by effectively applying an inverse weighting to counteract differences in cell number in each decile for different variants. Ensemble expression levels or cAMP responses were calculated without regard to deciles. Variant cADDis responses were also analyzed within their own surface expression deciles.
# [4] = system: wild-type and variant SNAP-GIPR; experiment: Single-concentration GIP cAMP response by HTRF in AD293 cells; conditions: Fig S3F, HTRF, mean;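 further: ratio to experiment-wide average response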
# Description: as §2
# [5] = system: wild-type and variant SNAP-GIPR; experiment: Surface SNAP-GIPR expression (SNAP-tag labelling) in INS-1 cells; conditions: Fig 4G; Mean
# Description: as §1
# [6] = system: wild-type and variant SNAP-GIPR; experiment: Constitutive and agonist-mediated internalization, reversible SNAP-tag labelling, INS-1 cells; parameters: key to Internalisation, GIP-only / Internalisation, Vehicle / Internalisation, +GIP: % internalization: residual fluorescence after Mesna vs pre-Mesna; conditions: Mean
# Description: (§3) Twenty-four hours before the experiment, AD293 or INS-1 cells were reverse transfected with GIPR variant or wild-type plasmids using Lipofectamine 2000 in 96-well, clear-bottom, black microplates precoated with poly-D-lysine. All variants were tested in parallel on each occasion to control for transfection efficiency differences between experiments. […] Media were then removed, cells washed with PBS and then placed in TNE buffer (pH 8.6) for imaging. […] After 10 min, the well was reimaged again to detect remaining fluorescence from internalized GIPR. Images were analyzed as in the “Assessment of surface GIPR expression by SNAP-tag labeling in cell lines” section, with the residual specific fluorescence after Mesna treatment expressed relative to the pre-Mesna value to establish percentage internalization.
# [7] = system: wild-type and variant SNAP-GIPR; experiment: Constitutive and agonist-mediated internalization, reversible SNAP-tag labelling, AD293 cells; parameters: key to Internalisation, Vehicle / Internalisation, +GIP / Internalisation, GIP-only: % internalization: residual fluorescence after Mesna vs pre-Mesna; Surface expression: unit not given here; conditions: Mean
# Description: as §3
molecule,measurement,setting,value
B1,AD293 Surface,"[1]; column repeated, paired with cAMP 100 nM",1.362
same,AD293 Surface,[1]; paired with cAMP 100 pM,1.362
same,Surface SNAP-GIPR expression,[1]; replicate 1,0.7106
same,Surface SNAP-GIPR expression,[1]; replicate 2,2.058
same,Surface SNAP-GIPR expression,[1]; replicate 3,0.7777
same,Surface SNAP-GIPR expression,[1]; replicate 4,1.042
same,Surface SNAP-GIPR expression,[1]; replicate 5,1.12
same,Surface SNAP-GIPR expression,[1]; replicate 6,1.654
same,Surface SNAP-GIPR expression,[1]; replicate 7,1.227
same,Surface SNAP-GIPR expression,[1]; replicate 8,1.559
same,Surface SNAP-GIPR expression,[1]; replicate 9,1.551
same,Surface SNAP-GIPR expression,[1]; replicate 10,1.359
same,Surface SNAP-GIPR expression,[1]; replicate 11,1.194
same,Surface SNAP-GIPR expression,[1]; replicate 12,1.256
same,Surface SNAP-GIPR expression,[1]; replicate 13,1.318
same,Surface SNAP-GIPR expression,[1]; replicate 14,0.9106
same,Surface SNAP-GIPR expression,[1]; replicate 15,1.304
same,Surface SNAP-GIPR expression,[1]; replicate 16,1.372
same,Surface SNAP-GIPR expression,[1]; replicate 17,1.574
same,Surface SNAP-GIPR expression,[1]; replicate 18,1.448
same,Surface SNAP-GIPR expression,[1]; replicate 19,1.382
same,Surface SNAP-GIPR expression,[1]; replicate 20,1.357
same,Surface SNAP-GIPR expression,[1]; replicate 21,1.273
same,Surface SNAP-GIPR expression,[1]; replicate 22,1.627
same,Surface SNAP-GIPR expression,[1]; replicate 23,1.424
same,Surface SNAP-GIPR expression,[1]; replicate 24,1.463
same,Surface SNAP-GIPR expression,[1]; replicate 25,1.446
same,Surface SNAP-GIPR expression,[1]; replicate 26,1.405
same,Surface SNAP-GIPR expression,[1]; replicate 27,1.475
same,Surface SNAP-GIPR expression,[1]; replicate 28,1.453
same,Surface SNAP-GIPR expression,[1]; replicate 29,1.54
same,Surface SNAP-GIPR expression,[1]; replicate 30,1.363
same,Surface SNAP-GIPR expression,[1]; replicate 31,1.317
same,Surface SNAP-GIPR expression,[1]; replicate 32,1.55
same,Surface SNAP-GIPR expression,[1]; replicate 33,1.587
same,Surface SNAP-GIPR expression,[1]; replicate 34,1.477
same,Surface SNAP-GIPR expression,[1]; replicate 35,1.359
same,Surface SNAP-GIPR expression,[1]; replicate 36,1.207
same,Surface SNAP-GIPR expression,[1]; replicate 37,1.251
same,Surface SNAP-GIPR expression,[1]; replicate 38,1.505
same,Surface SNAP-GIPR expression,[1]; replicate 39,1.263
same,Surface SNAP-GIPR expression,[1]; replicate 40,1.363
same,Surface SNAP-GIPR expression,[1]; replicate 41,1.33
same,INS-1 cAMP (100 nM),[2],1.548
same,AD293 100 pM cADDis,"[3]; AD293, 100 pM",25.6916
same,AD293 100 nM cADDis,"[3]; AD293, 100 nM",36.03
same,AD293 100 pM HTRF,"[4]; AD293, 100 pM",0.4337
same,AD293 100 nM HTRF,"[4]; AD293, 100 nM",1.306
same,Surface expression,[5],1.447
same,+GIP internalisation (100 nM),"[6]; Fig 4G, GIP 100 nM",0.7402
same,GIP-specific internalisation (100 nM),"[6]; Fig 4G, GIP 100 nM",0.1769
same,Constitutive internalisation (100 nM),[6]; Fig 4G,0.5633
same,"Internalisation, +GIP","[6]; Fig S4C, INS-1",45.9917
same,"Internalisation, GIP-only","[6]; Fig S4C, INS-1",10.9733
same,"Internalisation, Vehicle","[6]; Fig S4C, INS-1",35.0183
same,+GIP internalisation (100 nM),"[7]; Fig 4E, GIP 100 nM",0.7235
same,GIP-specific internalisation (100 nM),"[7]; Fig 4E, GIP 100 nM",0.2116
same,Constitutive internalisation (100 nM),[7]; Fig 4E,0.5118
same,Surface expression,[7]; Fig 4E,1.308
same,"Internalisation, +GIP","[7]; Fig S4C, AD293",55.4494
same,"Internalisation, GIP-only","[7]; Fig S4C, AD293",16.1484
same,"Internalisation, Vehicle","[7]; Fig S4C, AD293",39.3009
